Target: the molecule itself

B1: zSIGIRR-TIR (domain or fragment)
chain: KMYDAYISYVNNENDRKFVNFILKPHLENKYSHKLLLNNTNILPGAEPSAELLMNISRCQRLIVVLSQSYLEQEWCTTNFRQGLWHLIELSRKPIFIIFQSQQKQISQDISQQLRQHQPCITMITWGAHSMTPSSGFWKELALVMPRK
- stoichiometry N: 2

Source: article PMC9213720 (iScience, 2022)
